Laboratory results from patent US11248019B2, “Trityl-mono-GalNAc compounds and their use” (Hoffmann-La Roche Inc., priority 2016, dated 2022).

Columns and labels:
Type in all cases: in vivo, C57BL6/J mice
ApoB mRNA [1] = test: ApoB mRNA knockdown in liver and kidney by qPCR, single sc dose, sacrifice day 10 (Example 4); settings: for ApoB mRNA expression as % of saline, mRNA kidney: day 10, kidney; for ApoB mRNA expression as % of saline, mRNA liver: day 10, liver; for knock down of ApoB mRNA compared to the GalNAc2 cluster conjugated LNA oligonucleotide (compound G) / knock down of ApoB mRNA in the liver compared to unconjugated (naked) oligonucleotide (compound F): in words; for knock down of ApoB mRNA compared to the GalNAc2 cluster conjugated LNA oligonucleotide (compound G): high dose (0.25 mg/kg); for knock down of ApoB mRNA in the liver compared to unconjugated (naked) oligonucleotide (compound F): single sc dose, day 10
Protocol: (§1) Female C57BL6/J mice (5/group appr. 20 g at arrival) were injected subcutaneous (sc) with a single dose saline or 0.25 mg/kg unconjugated LNA-antisense oligonucleotide (compound F) or with 0.25 mg/kg or 0.1 mg/kg of GalNAc conjugated LNA antisense oligonucleotide (Compound C or E of the invention or reference compound G). Blood samples of 50 μl were collected pre-dosing at day minus 6, and post dosing at day 3 and 7. The animals were sacrificed at day 10 and total serum was collected as well as liver and kidney.
(§2) ApoB mRNA knockdown was analyzed by qPCR. In brief, RNA was isolated from homogenized liver and kidney using MagnaPure RNA Isolation and purification system (catalog #03604721001 and #05467535001; Roche) according to the manufacturer's instructions. RT-QPCR was done using Taqman Fast Universal PCR Master Mix 2×(Applied Biosystems Cat #4364103) and Taqman gene expression assay (mApoB, Mn01545150_m1 and mGAPDH #4352339E) following the manufacturers protocol.

[2] = Oligonucleotide content in liver and kidney by ELISA (Example 4); settings: for Oligonucleotide content, Kidney / Oligonucleotide content, Liver: day 10
Protocol: as §1
The oligonucleotide content in the liver and kidney was measured using ELISA (see for example Straarup et al 2010 Nucleic Acid Res Vol 38 pp 7100-7111), results are shown in Table 6.

ApoB mRNA [3] = test: ApoB mRNA knockdown in liver and kidney by qPCR, single iv dose 0.1 mg/kg, day 7 or 14 (Example 7); settings: 0.1 mg/kg single iv dose
Protocol: as §2
(§3) Female C57BL6/J mice (5/group appr. 20 g at arrival) were injected intravenous (iv) with a single dose saline or 0.1 mg/kg of GalNAc conjugated LNA antisense oligonucleotide (Compound J, K, L, B or C of the invention or reference compound M). Blood samples of 50 μl were collected pre-dosing at day minus 6, and post dosing at day 3, 7, 10 and 14. The animals were sacrificed at day 7 or 14 and total serum was collected as well as liver and kidney.
ApoB mRNA knock down was measured as described in example 4.

[4] = Oligonucleotide content in liver and kidney by ELISA (Example 7); settings: 0.1 mg/kg single iv dose
Protocol: as §3
The oligonucleotide content in the liver and kidney was measured using ELISA (see for example Straarup et al 2010 Nucleic Acid Res Vol 38 pp 7100-7111), results are shown in Table 16.

ALT in serum (Example 7) = settings: 0.1 mg/kg single iv dose
Protocol: as §3
ALT (Alanine aminotransferase) was measured using ABX Pentra ALT CP reagent (A11A01627 Triolab, Brondby, Denmark. The results are shown in table 17.

Substance | ApoB mRNA expression as % of saline, mRNA kidney (ApoB mRNA [1]; 0.1 mg/kg single sc dose) | ApoB mRNA expression as % of saline, mRNA liver (ApoB mRNA [1]; 0.1 mg/kg single sc dose) | ApoB mRNA expression as % of saline, mRNA kidney (ApoB mRNA [1]; 0.25 mg/kg single sc dose) | ApoB mRNA expression as % of saline, mRNA liver (ApoB mRNA [1]; 0.25 mg/kg single sc dose) | knock down of ApoB mRNA compared to the GalNAc2 cluster conjugated LNA oligonucleotide (compound G) (ApoB mRNA [1]) | knock down of ApoB mRNA in the liver compared to unconjugated (naked) oligonucleotide (compound F) (ApoB mRNA [1]) | Oligonucleotide content, Kidney ([2]; 0.1 mg/kg single sc dose) [μg/g tissue] | Oligonucleotide content, Liver ([2]; 0.1 mg/kg single sc dose) [μg/g tissue] | Oligonucleotide content, Kidney ([2]; 0.25 mg/kg single sc dose) [μg/g tissue] | Oligonucleotide content, Liver ([2]; 0.25 mg/kg single sc dose) [μg/g tissue] | ApoB mRNA/mGAPDH expression as % of saline, Avg kidney (ApoB mRNA [3]; Day 7, kidney) | ApoB mRNA/mGAPDH expression as % of saline, Avg liver (ApoB mRNA [3]; Day 7, liver) | ApoB mRNA/mGAPDH expression as % of saline, Avg kidney (ApoB mRNA [3]; Day 14, kidney) | ApoB mRNA/mGAPDH expression as % of saline, Avg liver (ApoB mRNA [3]; Day 14, liver) | Oligonucleotide content, Avg kidney ([4]; Day 7, kidney tissue) [µg/g] | Oligonucleotide content, Avg liver ([4]; Day 7, liver tissue) [µg/g] | Oligonucleotide content, Avg kidney ([4]; Day 14, kidney tissue) [µg/g] | Oligonucleotide content, Avg liver ([4]; Day 14, liver tissue) [µg/g] | ALT levels (U/L) in serum as % of saline (ALT in serum (Example 7); Day 7) | ALT levels (U/L) in serum as % of saline (ALT in serum (Example 7); Day 14) | other results
5′-GS^mCSaStStSgSgStSaStSTS^mCSAOcOa-3′ [E] | 84.8 % of saline | 60.5 % of saline | 51.0 % of saline | 34.9 % of saline | comparable | improved knock down | 0.094 | 0.021 | 0.243 | 0.069 |  |  |  |  |  |  |  |  |  |  | uptake in liver and kidney compared to the unconjugated oligonucleotide (compound F) ([2]; in words): enhanced uptake in the liver and reduced uptake in the kidney
5′-cOaOGS^mCSaStStSgSgStSaStSTS^mCSA-3′ [B] |  |  |  |  |  |  |  |  |  |  | 62.5 % of saline | 49.2 % of saline | 100.3 % of saline | 112.8 % of saline | 0.353 | 0.161 | 0.152 | 0.066 | 177.3 % of saline | 108.5 % of saline | 
5′-cOaOGS^mCSaStStSgSgStSaStSTS^mCSA-3′ [Compound C] | 72.4 % of saline | 69.6 % of saline | 56.1 % of saline | 24.0 % of saline | better knockdown | improved knock down | 0.080 | 0.028 | 0.080 | 0.028 | 93.8 % of saline | 63.2 % of saline | 74.4 % of saline | 116.3 % of saline | 0.307 | 0.493 | 0.118 | 0.209 | 136.7 % of saline | 111.3 % of saline | uptake in liver and kidney compared to the unconjugated oligonucleotide (compound F) ([2]; in words): enhanced uptake in the liver and reduced uptake in the kidney; liver/kidney distribution ratio compared to GalNAc2 conjugated LNA oligonucleotide (compound G) ([2]; in words, high dose): improved liver/kidney distribution ratio
5′-cOaOGS^mCSaStStSgSgStSaStSTS^mCSA-3′ [K] |  |  |  |  |  |  |  |  |  |  | 80.2 % of saline | 48.7 % of saline | 86.2 % of saline | 112.4 % of saline | 0.275 | 0.401 | 0.129 | 0.173 | 170.3 % of saline | 77.3 % of saline | 
